Measurements published in the Human Domainome abundance scans (Beltran et al. 2025).
± gives the uncertainty stated by the source.

B1: POU domain, class 2, transcription factor 3, residues 186 to 260; numbered along this chain, Q9UKI9 (parent)
chain: SDLEELEKFAKTFKQRRIKLGFTQGDVGLAMGKLYGNDFSQTTISRFEALNLSFKNMCKLKPLLEKWLNDAESSP

Variants of: B1
Test: abundance fitness (aPCA) (normalised: wild type 0, dead -1); higher = more abundant; growth selection in yeast, the domain comes from the species named
Details: Homo sapiens

**Q.** Which abundance fitness does the source give for K8G here?
**A.** The abundance fitness was -0.115 ± 0.1.

**Q.** For S45D, which abundance fitness is on record?
**A.** The abundance fitness was -0.048 ± 0.037.

**Q.** For S45L, which abundance fitness is on record?
**A.** Its abundance fitness is -0.125 ± 0.026.

**Q.** Which abundance fitness does the source give for S45V here?
**A.** Its abundance fitness is -0.077 ± 0.026.

**Q.** Which abundance fitness does the source give for S45Y here?
**A.** Its abundance fitness is -0.099 ± 0.043.

**Q.** Which abundance fitness does the source give for S45P here?
**A.** The abundance fitness was -0.04 ± 0.036.

**Q.** For S45R, which abundance fitness is on record?
**A.** Its abundance fitness is -0.024 ± 0.023.

**Q.** Which abundance fitness does the source give for S45F here?
**A.** Its abundance fitness is -0.253 ± 0.054.

**Q.** With S45N as the variant, how does the abundance fitness read?
**A.** The abundance fitness was 0.004 ± 0.05.

**Q.** For S45H, which abundance fitness is on record?
**A.** The abundance fitness was -0.097 ± 0.05.

**Q.** Which abundance fitness does the source give for S45A here?
**A.** The abundance fitness was 0.013 ± 0.025.

**Q.** Which abundance fitness does the source give for S45G here?
**A.** Its abundance fitness is -0.036 ± 0.022.

**Q.** With S45I as the variant, how does the abundance fitness read?
**A.** The abundance fitness was -0.125 ± 0.05.

**Q.** Which abundance fitness does the source give for S45K here?
**A.** The abundance fitness was 0.021 ± 0.035.

**Q.** For S45T, which abundance fitness is on record?
**A.** The abundance fitness was -0.036 ± 0.03.

**Q.** For S45C, which abundance fitness is on record?
**A.** The abundance fitness was 0.022 ± 0.038.

**Q.** With S45W as the variant, how does the abundance fitness read?
**A.** Its abundance fitness is -0.138 ± 0.03.

**Q.** For S45M, which abundance fitness is on record?
**A.** The abundance fitness was -0.037 ± 0.035.

**Q.** With L3F as the variant, how does the abundance fitness read?
**A.** The abundance fitness was -0.055 ± 0.32.

**Q.** With I18K as the variant, how does the abundance fitness read?
**A.** The abundance fitness was -0.028 ± 0.042.

**Q.** For I18P, which abundance fitness is on record?
**A.** Its abundance fitness is -0.964 ± 0.1.

**Q.** Which abundance fitness does the source give for I18F here?
**A.** Its abundance fitness is -0.266 ± 0.076.

**Q.** For I18A, which abundance fitness is on record?
**A.** The abundance fitness was -0.056 ± 0.031.

**Q.** With I18C as the variant, how does the abundance fitness read?
**A.** The abundance fitness was -0.143 ± 0.046.

**Q.** Which abundance fitness does the source give for I18S here?
**A.** Its abundance fitness is -0.072 ± 0.029.

**Q.** With I18Y as the variant, how does the abundance fitness read?
**A.** The abundance fitness was -0.166 ± 0.054.

**Q.** Which abundance fitness does the source give for I18N here?
**A.** Its abundance fitness is -0.146 ± 0.056.

**Q.** Which abundance fitness does the source give for I18R here?
**A.** The abundance fitness was -0.057 ± 0.025.

**Q.** Which abundance fitness does the source give for I18D here?
**A.** The abundance fitness was -0.063 ± 0.048.

**Q.** With I18W as the variant, how does the abundance fitness read?
**A.** Its abundance fitness is -0.31 ± 0.038.

**Q.** Which abundance fitness does the source give for I18T here?
**A.** The abundance fitness was -0.041 ± 0.036.

**Q.** For I18H, which abundance fitness is on record?
**A.** Its abundance fitness is -0.133 ± 0.072.

**Q.** With I18V as the variant, how does the abundance fitness read?
**A.** The abundance fitness was -0.023 ± 0.027.

**Q.** With I18Q as the variant, how does the abundance fitness read?
**A.** The abundance fitness was 0.086 ± 0.038.

**Q.** With I18E as the variant, how does the abundance fitness read?
**A.** The abundance fitness was 0.064 ± 0.031.

**Q.** For I18M, which abundance fitness is on record?
**A.** Its abundance fitness is 0.004 ± 0.034.

**Q.** With I18L as the variant, how does the abundance fitness read?
**A.** The abundance fitness was -0.025 ± 0.028.

**Q.** With A30G as the variant, how does the abundance fitness read?
**A.** Its abundance fitness is -0.288 ± 0.27.

**Q.** Which abundance fitness does the source give for T42I here?
**A.** Its abundance fitness is 0.135 ± 0.25.

**Q.** With N51Q as the variant, how does the abundance fitness read?
**A.** Its abundance fitness is -0.011 ± 0.056.

**Q.** Which abundance fitness does the source give for N51G here?
**A.** The abundance fitness was -0.01 ± 0.031.

**Q.** With N51M as the variant, how does the abundance fitness read?
**A.** Its abundance fitness is -0.022 ± 0.057.

**Q.** Which abundance fitness does the source give for N51P here?
**A.** The abundance fitness was -0.844 ± 0.2.

**Q.** For N51L, which abundance fitness is on record?
**A.** The abundance fitness was -0.035 ± 0.044.

**Q.** Which abundance fitness does the source give for N51E here?
**A.** The abundance fitness was -0.078 ± 0.048.

**Q.** For N51I, which abundance fitness is on record?
**A.** Its abundance fitness is -0.151 ± 0.068.

**Q.** For N51C, which abundance fitness is on record?
**A.** The abundance fitness was -0.076 ± 0.058.

**Q.** With N51Y as the variant, how does the abundance fitness read?
**A.** The abundance fitness was -0.188 ± 0.1.

**Q.** Which abundance fitness does the source give for N51W here?
**A.** The abundance fitness was -0.282 ± 0.044.

**Q.** With N51K as the variant, how does the abundance fitness read?
**A.** The abundance fitness was 0.069 ± 0.051.

**Q.** For N51T, which abundance fitness is on record?
**A.** The abundance fitness was 0.007 ± 0.05.

**Q.** With N51D as the variant, how does the abundance fitness read?
**A.** The abundance fitness was -0.008 ± 0.089.

**Q.** With N51S as the variant, how does the abundance fitness read?
**A.** Its abundance fitness is 0.043 ± 0.034.

**Q.** Which abundance fitness does the source give for N51V here?
**A.** The abundance fitness was -0.1 ± 0.039.

**Q.** With N51H as the variant, how does the abundance fitness read?
**A.** Its abundance fitness is 0.107 ± 0.098.

**Q.** With G28R as the variant, how does the abundance fitness read?
**A.** Its abundance fitness is -0.191 ± 0.17.

**Q.** Which abundance fitness does the source give for G28C here?
**A.** The abundance fitness was -0.367 ± 0.22.

**Q.** Which abundance fitness does the source give for G28A here?
**A.** Its abundance fitness is -0.055 ± 0.11.

**Q.** For G28T, which abundance fitness is on record?
**A.** The abundance fitness was 0.087 ± 0.46.

**Q.** For G28Q, which abundance fitness is on record?
**A.** Its abundance fitness is -0.59 ± 0.47.

**Q.** With D2G as the variant, how does the abundance fitness read?
**A.** Its abundance fitness is -0.01 ± 0.41.

**Q.** With D2N as the variant, how does the abundance fitness read?
**A.** Its abundance fitness is -0.107 ± 0.21.

**Q.** With D2E as the variant, how does the abundance fitness read?
**A.** Its abundance fitness is 0.015 ± 0.1.

**Q.** Which abundance fitness does the source give for D26V here?
**A.** The abundance fitness was -0.227 ± 0.49.

**Q.** For D26G, which abundance fitness is on record?
**A.** Its abundance fitness is -0.125 ± 0.11.

**Q.** With D26R as the variant, how does the abundance fitness read?
**A.** The abundance fitness was -0.344 ± 0.2.

**Q.** With Y35S as the variant, how does the abundance fitness read?
**A.** The abundance fitness was 0.01 ± 0.15.

**Q.** Which abundance fitness does the source give for Y35F here?
**A.** Its abundance fitness is -0.182 ± 0.23.

**Q.** For Y35D, which abundance fitness is on record?
**A.** The abundance fitness was -0.016 ± 0.15.

**Q.** For G21D, which abundance fitness is on record?
**A.** Its abundance fitness is -0.373 ± 0.2.

**Q.** With G21S as the variant, how does the abundance fitness read?
**A.** Its abundance fitness is -0.504 ± 0.28.

**Q.** For G21Q, which abundance fitness is on record?
**A.** Its abundance fitness is -0.493 ± 0.39.

**Q.** With G21V as the variant, how does the abundance fitness read?
**A.** Its abundance fitness is -0.683 ± 0.44.

**Q.** Which abundance fitness does the source give for D38N here?
**A.** Its abundance fitness is 0.037 ± 0.23.

**Q.** For G32R, which abundance fitness is on record?
**A.** The abundance fitness was 0.29 ± 0.27.

**Q.** For Q41D, which abundance fitness is on record?
**A.** The abundance fitness was -0.066 ± 0.063.

**Q.** With Q41W as the variant, how does the abundance fitness read?
**A.** Its abundance fitness is -0.095 ± 0.027.

**Q.** For Q41A, which abundance fitness is on record?
**A.** The abundance fitness was 0.025 ± 0.027.

**Q.** With Q41I as the variant, how does the abundance fitness read?
**A.** The abundance fitness was -0.072 ± 0.065.

**Q.** For Q41Y, which abundance fitness is on record?
**A.** Its abundance fitness is -0.07 ± 0.09.

**Q.** Which abundance fitness does the source give for Q41S here?
**A.** The abundance fitness was -0.002 ± 0.031.

**Q.** For Q41E, which abundance fitness is on record?
**A.** Its abundance fitness is 0.026 ± 0.027.

**Q.** With Q41H as the variant, how does the abundance fitness read?
**A.** The abundance fitness was -0.001 ± 0.089.
